Measurements taken from publication PMC2756588.

Legend:
Assay in all cases: SPOT array
Abp1, P15891 = target: T1, Abp1, P15891; settings: median of control spots 935
T1 sequence (P15891 535-592, looked up): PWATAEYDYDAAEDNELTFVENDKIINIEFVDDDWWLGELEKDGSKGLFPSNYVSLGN

Bbc1, P47068 = target: T2, Bbc1, P47068; settings: median of control spots 796
T2 sequence (P47068 1-78, looked up): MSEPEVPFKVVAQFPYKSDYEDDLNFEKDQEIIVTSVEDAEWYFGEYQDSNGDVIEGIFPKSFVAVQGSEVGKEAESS

Bem1-1, P29366 = settings: median of control spots 4282
Chain of Bem1-1, P29366 (P29366 55-141): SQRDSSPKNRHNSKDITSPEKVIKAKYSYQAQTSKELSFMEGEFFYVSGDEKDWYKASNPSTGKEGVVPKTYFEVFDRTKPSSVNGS

Bem1-2, P29366 = settings: median of control spots 4347
Chain of Bem1-2, P29366 (P29366 139-227): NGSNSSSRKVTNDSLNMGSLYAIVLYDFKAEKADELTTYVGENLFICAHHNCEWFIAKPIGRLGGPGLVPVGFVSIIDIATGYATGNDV

Boi1, P38041 = target: T3, Boi1, P38041; settings: median of control spots 1162
T3 sequence (P38041 1-86, looked up): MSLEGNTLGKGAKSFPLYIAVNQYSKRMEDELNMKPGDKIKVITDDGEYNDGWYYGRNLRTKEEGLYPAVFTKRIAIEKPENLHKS

Boi2, P39969 = target: T4, Boi2, P39969; settings: median of control spots 1161
T4 sequence (P39969 32-116, looked up): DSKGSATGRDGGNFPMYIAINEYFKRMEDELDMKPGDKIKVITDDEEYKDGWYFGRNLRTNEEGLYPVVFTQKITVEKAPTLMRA

Bud14, P27637 = target: T5, Bud14, P27637; settings: median of control spots 956
T5 sequence (P27637 247-328, looked up): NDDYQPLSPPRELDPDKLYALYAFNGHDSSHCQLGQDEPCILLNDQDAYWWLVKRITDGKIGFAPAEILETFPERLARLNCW

Bzz1-1, P38822 = target: T6, Bzz1-1, P38822; settings: median of control spots 4446
T6 sequence (P38822 478-572, looked up): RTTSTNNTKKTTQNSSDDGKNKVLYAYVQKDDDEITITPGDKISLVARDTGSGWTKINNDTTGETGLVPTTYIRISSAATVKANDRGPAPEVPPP

Bzz1-2, P38822 = target: T7, Bzz1-2, P38822; settings: median of control spots 4538
T7 sequence (P38822 568-633, looked up): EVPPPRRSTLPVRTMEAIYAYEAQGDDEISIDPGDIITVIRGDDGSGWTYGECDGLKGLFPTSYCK

Cdc25, P04821 = target: T8, Cdc25, P04821; settings: median of control spots 969
T8 sequence (P04821 50-136, looked up): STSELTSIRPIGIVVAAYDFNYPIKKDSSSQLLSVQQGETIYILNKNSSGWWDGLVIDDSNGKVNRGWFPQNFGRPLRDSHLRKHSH

Cyk3, Q07533 = target: T9, Cyk3, Q07533; settings: median of control spots 1451
T9 sequence (Q07533 1-83, looked up): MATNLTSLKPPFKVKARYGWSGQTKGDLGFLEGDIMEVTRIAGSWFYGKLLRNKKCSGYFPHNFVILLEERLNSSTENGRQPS

Fus1, P11710 = target: T10, Fus1, P11710; settings: median of control spots 1200
T10 sequence (P11710 432-512, looked up): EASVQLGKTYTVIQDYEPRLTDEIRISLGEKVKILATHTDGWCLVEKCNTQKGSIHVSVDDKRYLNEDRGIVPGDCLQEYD

GST = settings: median of control spots 978
Hof1, Q05080 = target: T11, Hof1, Q05080; settings: median of control spots 4086
T11 sequence (Q05080 590-669, looked up): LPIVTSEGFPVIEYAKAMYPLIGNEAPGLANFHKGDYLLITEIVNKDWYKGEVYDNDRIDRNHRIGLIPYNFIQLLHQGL

Hse1, P38753 = target: T12, Hse1, P38753; settings: median of control spots 1727
T12 sequence (P38753 208-285, looked up): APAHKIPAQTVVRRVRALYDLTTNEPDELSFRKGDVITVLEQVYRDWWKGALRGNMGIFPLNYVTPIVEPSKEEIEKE

Lsb1, P53281 = target: T13, Lsb1, P53281; settings: median of control spots 388
T13 sequence (P53281 45-122, looked up): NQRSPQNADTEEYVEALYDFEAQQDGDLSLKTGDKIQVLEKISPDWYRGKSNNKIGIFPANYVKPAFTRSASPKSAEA

Lsb3, P43603 = target: T14, Lsb3, P43603; settings: median of control spots 406
T14 sequence (P43603 385-451, looked up): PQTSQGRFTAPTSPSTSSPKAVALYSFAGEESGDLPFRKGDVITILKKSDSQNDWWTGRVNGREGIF

Lsb4, P32793 = target: T15, Lsb4, P32793; settings: median of control spots 397
T15 sequence (P32793 402-468, looked up): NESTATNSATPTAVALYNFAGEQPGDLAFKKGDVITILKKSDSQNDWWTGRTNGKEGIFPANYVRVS

Myo3, P36006 = settings: median of control spots 468
Myo5, Q04439 = target: T16, Myo5, Q04439; settings: median of control spots 471
T16 sequence (Q04439 1072-1160, looked up): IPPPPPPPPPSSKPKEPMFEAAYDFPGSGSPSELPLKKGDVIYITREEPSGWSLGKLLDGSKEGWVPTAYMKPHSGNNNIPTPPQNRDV

Nbp2, Q12163 = target: T17, Nbp2, Q12163; settings: median of control spots 357
T17 sequence (Q12163 103-180, looked up): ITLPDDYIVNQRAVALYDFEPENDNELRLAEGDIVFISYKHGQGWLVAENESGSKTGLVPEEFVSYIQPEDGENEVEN

Pex13, P80667 = target: T18, Pex13, P80667; settings: median of control spots 1341
T18 sequence (P80667 295-386, looked up): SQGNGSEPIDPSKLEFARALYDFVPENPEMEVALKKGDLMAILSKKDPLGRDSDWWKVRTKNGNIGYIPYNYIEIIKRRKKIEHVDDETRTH

Pin3, Q06449 = target: T19, Pin3, Q06449; settings: median of control spots 2171
T19 sequence (Q06449 53-122, looked up): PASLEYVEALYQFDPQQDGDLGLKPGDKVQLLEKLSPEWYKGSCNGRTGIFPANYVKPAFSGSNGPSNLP

Rvs167, P39743 = settings: median of control spots 2707
Chain of Rvs167, P39743 (P39743 419-482): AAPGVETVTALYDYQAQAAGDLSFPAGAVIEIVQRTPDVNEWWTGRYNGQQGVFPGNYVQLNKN

Sho1, P40073 = settings: median of control spots 1148
Chain of Sho1, P40073 (P40073 287-367): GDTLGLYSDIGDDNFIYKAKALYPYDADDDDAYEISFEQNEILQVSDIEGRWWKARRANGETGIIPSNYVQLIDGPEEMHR

Sla1-2, P32790 = target: T20, Sla1-2, P32790; settings: median of control spots 712
T20 sequence (P32790 60-140, looked up): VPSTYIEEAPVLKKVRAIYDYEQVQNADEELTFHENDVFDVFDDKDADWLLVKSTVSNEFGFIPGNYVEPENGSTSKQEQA

Sla1-3, P32790 = target: T21, Sla1-3, P32790; settings: median of control spots 5475
T21 sequence (P32790 344-424, looked up): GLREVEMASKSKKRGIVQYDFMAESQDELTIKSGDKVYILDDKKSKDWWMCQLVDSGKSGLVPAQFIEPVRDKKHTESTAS

RLPAPPPPPRRGPAP showed an SPOT intensity (Abp1, P15891) of 0, an SPOT intensity (Bbc1, P47068) of 0 and an SPOT intensity (Bem1-1, P29366) of 0. It also gave an SPOT intensity (Bem1-2, P29366) of 2, an SPOT intensity (Boi1, P38041) of 0 and an SPOT intensity (Boi2, P39969) of 1. It also gave an SPOT intensity (Bud14, P27637) of 3, an SPOT intensity (Bzz1-1, P38822) of 31 and an SPOT intensity (Bzz1-2, P38822) of 9. For the same binder, the SPOT intensity (Cdc25, P04821) was 0, the SPOT intensity (Cyk3, Q07533) was 0 and the SPOT intensity (Fus1, P11710) was 0. For the same binder, the SPOT intensity (GST) was 0, the SPOT intensity (Hof1, Q05080) was 5 and the SPOT intensity (Hse1, P38753) was 1. For the same binder, the SPOT intensity (Lsb1, P53281) was 0, the SPOT intensity (Lsb3, P43603) was 0 and the SPOT intensity (Lsb4, P32793) was 0. The SPOT intensity (Myo3, P36006) was 0, the SPOT intensity (Myo5, Q04439) was 0 and the SPOT intensity (Nbp2, Q12163) was 1. For the same binder, the SPOT intensity (Pex13, P80667) was 75, the SPOT intensity (Pin3, Q06449) was 8 and the SPOT intensity (Rvs167, P39743) was 1500. It also gave an SPOT intensity (Sho1, P40073) of 0, an SPOT intensity (Sla1-2, P32790) of 0 and an SPOT intensity (Sla1-3, P32790) of 1.

For PAPPPPPRASRPTPN, the SPOT intensity (Abp1, P15891) was 0, the SPOT intensity (Bbc1, P47068) was 0 and the SPOT intensity (Bem1-1, P29366) was 0. It also gave an SPOT intensity (Bem1-2, P29366) of 0, an SPOT intensity (Boi1, P38041) of 1 and an SPOT intensity (Boi2, P39969) of 0. The SPOT intensity (Bud14, P27637) was 6, the SPOT intensity (Bzz1-1, P38822) was 7 and the SPOT intensity (Bzz1-2, P38822) was 0. It also gave an SPOT intensity (Cdc25, P04821) of 0, an SPOT intensity (Cyk3, Q07533) of 1 and an SPOT intensity (Fus1, P11710) of 1. The SPOT intensity (GST) was 1, the SPOT intensity (Hof1, Q05080) was 0 and the SPOT intensity (Hse1, P38753) was 0. It also gave an SPOT intensity (Lsb1, P53281) of 0, an SPOT intensity (Lsb3, P43603) of 0 and an SPOT intensity (Lsb4, P32793) of 0. For the same binder, the SPOT intensity (Myo3, P36006) was 0, the SPOT intensity (Myo5, Q04439) was 1 and the SPOT intensity (Nbp2, Q12163) was 0. For the same binder, the SPOT intensity (Pex13, P80667) was 56, the SPOT intensity (Pin3, Q06449) was 6 and the SPOT intensity (Rvs167, P39743) was 514. The SPOT intensity (Sho1, P40073) was 0, the SPOT intensity (Sla1-2, P32790) was 2 and the SPOT intensity (Sla1-3, P32790) was 0.

In the case of SGVRLPAPPPPPRRG, the SPOT intensity (Abp1, P15891) is reported as 0, the SPOT intensity (Bbc1, P47068) is reported as 0 and the SPOT intensity (Bem1-1, P29366) is reported as 3. It also gave an SPOT intensity (Bem1-2, P29366) of 0, an SPOT intensity (Boi1, P38041) of 0 and an SPOT intensity (Boi2, P39969) of 1. For the same binder, the SPOT intensity (Bud14, P27637) was 3, the SPOT intensity (Bzz1-1, P38822) was 6 and the SPOT intensity (Bzz1-2, P38822) was 20. The SPOT intensity (Cdc25, P04821) was 0, the SPOT intensity (Cyk3, Q07533) was 1 and the SPOT intensity (Fus1, P11710) was 0. The SPOT intensity (GST) was 0, the SPOT intensity (Hof1, Q05080) was 633 and the SPOT intensity (Hse1, P38753) was 0. It also gave an SPOT intensity (Lsb1, P53281) of 0, an SPOT intensity (Lsb3, P43603) of 0 and an SPOT intensity (Lsb4, P32793) of 0. The SPOT intensity (Myo3, P36006) was 0, the SPOT intensity (Myo5, Q04439) was 0 and the SPOT intensity (Nbp2, Q12163) was 0. The SPOT intensity (Pex13, P80667) was 55, the SPOT intensity (Pin3, Q06449) was 4 and the SPOT intensity (Rvs167, P39743) was 3630. For the same binder, the SPOT intensity (Sho1, P40073) was 0, the SPOT intensity (Sla1-2, P32790) was 3 and the SPOT intensity (Sla1-3, P32790) was 0.

RRGPAPPPPPRASRP gave an SPOT intensity (Abp1, P15891) of 0, an SPOT intensity (Bbc1, P47068) of 0 and an SPOT intensity (Bem1-1, P29366) of 3. The SPOT intensity (Bem1-2, P29366) was 11, the SPOT intensity (Boi1, P38041) was 0 and the SPOT intensity (Boi2, P39969) was 0. It also gave an SPOT intensity (Bud14, P27637) of 8, an SPOT intensity (Bzz1-1, P38822) of 45 and an SPOT intensity (Bzz1-2, P38822) of 27. It also gave an SPOT intensity (Cdc25, P04821) of 0, an SPOT intensity (Cyk3, Q07533) of 0 and an SPOT intensity (Fus1, P11710) of 0. The SPOT intensity (GST) was 1, the SPOT intensity (Hof1, Q05080) was 2 and the SPOT intensity (Hse1, P38753) was 10. For the same binder, the SPOT intensity (Lsb1, P53281) was 0, the SPOT intensity (Lsb3, P43603) was 0 and the SPOT intensity (Lsb4, P32793) was 1. It also gave an SPOT intensity (Myo3, P36006) of 0, an SPOT intensity (Myo5, Q04439) of 0 and an SPOT intensity (Nbp2, Q12163) of 0. The SPOT intensity (Pex13, P80667) was 17, the SPOT intensity (Pin3, Q06449) was 17 and the SPOT intensity (Rvs167, P39743) was 3340. It also gave an SPOT intensity (Sho1, P40073) of 0, an SPOT intensity (Sla1-2, P32790) of 0 and an SPOT intensity (Sla1-3, P32790) of 14.
